Where a chain is given by its changes, count along the chain named. Each block holds one molecule with its values, some of them ahead of it.
Tests used:
Aurora B [1] = target: T1, Aurora B (Homo sapiens, UniProt Q96GD4); assay: Kinase activity of fractions immunoprecipitated with anti-HP1α-pS92 antibody or INCENP antibody; format: biochemical; design: endogenous in cells; settings: addition of inhibitor
Protocol: The cells in the mitotic phase were incubated in a solution, which was prepared by adding 1 U/μl OmniCleave Endonuclease (manufactured by Epicentre) in the above immunoprecipitation buffer, at 4° C. for 30 minutes. The solution was centrifuged at 4° C. and 15,000 rpm for 10 minutes and the supernatant was further centrifuged. The resultant supernatant was used for immunoprecipitation. Protein A-Sepharose (manufactured by Bio-Rad) having an antibody bound thereto, was allowed to react with cell extracts and subjected to immunoprecipitation. The sample obtained by immunoprecipitation was subjected to the immunoblotting using peroxidase-labeled Mouse TrueBlot ULTRA or Rabbit TrueBlot (manufactured by eBioscience) as a secondary antibody.
The kinase assay was carried out by adding a substrate in a kinase buffer (20 mM Tris-HCl, 50 mM MgCl2, 100 mM NaCl, 20 μM ATP, pH7.5) and 0.2 mCi/ml[γ^− ^32P]ATP. […] Phosphorylation was analyzed by Typhoon scanner (manufactured by GE Healthcare) and a liquid scintillation counter.
Next, we will describe that the binding of HP1 to CPC is necessary for activating Aurora B. Immunoprecipitation was carried out with anti-HP1α-pS92 antibody and INCENP antibody and proteins constituting CPC and subtypes of HP1 were analyzed by immunoblotting (FIG. 5H, left panel). […]
Target sequence in this assay (Q96GD4 whole entry): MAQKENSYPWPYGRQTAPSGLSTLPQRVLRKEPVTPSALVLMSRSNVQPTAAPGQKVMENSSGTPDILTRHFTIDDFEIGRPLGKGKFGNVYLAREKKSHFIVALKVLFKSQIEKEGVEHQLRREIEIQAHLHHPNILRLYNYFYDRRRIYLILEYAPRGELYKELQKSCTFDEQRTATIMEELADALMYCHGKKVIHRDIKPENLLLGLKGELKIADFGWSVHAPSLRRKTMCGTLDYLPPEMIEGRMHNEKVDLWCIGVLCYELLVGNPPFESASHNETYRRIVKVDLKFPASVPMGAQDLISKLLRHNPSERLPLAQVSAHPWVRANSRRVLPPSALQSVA
Target sequence in this assay (Q9NQS7 whole entry partner): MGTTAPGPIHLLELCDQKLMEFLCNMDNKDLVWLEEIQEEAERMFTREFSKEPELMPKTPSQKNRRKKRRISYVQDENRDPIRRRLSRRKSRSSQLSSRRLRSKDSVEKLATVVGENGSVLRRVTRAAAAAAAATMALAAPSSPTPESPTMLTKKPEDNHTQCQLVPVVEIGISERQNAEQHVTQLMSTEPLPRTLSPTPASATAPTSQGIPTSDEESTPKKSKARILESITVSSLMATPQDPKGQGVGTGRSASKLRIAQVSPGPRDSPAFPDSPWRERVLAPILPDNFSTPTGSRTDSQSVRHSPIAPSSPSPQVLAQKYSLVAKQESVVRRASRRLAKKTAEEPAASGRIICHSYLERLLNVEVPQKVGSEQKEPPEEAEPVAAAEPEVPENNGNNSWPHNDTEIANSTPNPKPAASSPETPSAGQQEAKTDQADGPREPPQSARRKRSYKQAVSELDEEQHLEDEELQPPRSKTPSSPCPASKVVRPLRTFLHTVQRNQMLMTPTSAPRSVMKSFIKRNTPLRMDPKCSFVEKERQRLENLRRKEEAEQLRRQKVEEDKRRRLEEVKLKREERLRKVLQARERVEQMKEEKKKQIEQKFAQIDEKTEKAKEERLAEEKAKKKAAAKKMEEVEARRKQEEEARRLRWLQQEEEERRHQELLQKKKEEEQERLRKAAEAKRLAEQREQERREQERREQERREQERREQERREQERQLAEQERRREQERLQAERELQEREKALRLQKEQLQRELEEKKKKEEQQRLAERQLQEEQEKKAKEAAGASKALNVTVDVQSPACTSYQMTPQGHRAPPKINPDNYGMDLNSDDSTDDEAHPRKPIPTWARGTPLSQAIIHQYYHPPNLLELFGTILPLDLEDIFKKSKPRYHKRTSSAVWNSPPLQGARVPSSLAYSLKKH
Target sequence in this assay (O15392 whole entry partner): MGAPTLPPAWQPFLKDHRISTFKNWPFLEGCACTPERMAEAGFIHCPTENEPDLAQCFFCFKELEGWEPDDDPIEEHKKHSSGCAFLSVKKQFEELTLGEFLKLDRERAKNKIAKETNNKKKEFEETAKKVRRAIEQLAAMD
Target sequence in this assay (Q53HL2 whole entry partner): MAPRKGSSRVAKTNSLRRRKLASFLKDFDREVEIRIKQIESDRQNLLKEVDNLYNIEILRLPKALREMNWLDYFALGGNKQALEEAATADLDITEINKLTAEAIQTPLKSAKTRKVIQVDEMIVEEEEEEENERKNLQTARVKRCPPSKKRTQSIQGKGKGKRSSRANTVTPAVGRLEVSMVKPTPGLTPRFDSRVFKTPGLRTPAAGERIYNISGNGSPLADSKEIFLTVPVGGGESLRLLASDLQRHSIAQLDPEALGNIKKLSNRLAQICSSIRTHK

Aurora B [2] = target: T1, Aurora B; assay: Immunostaining of metaphase cells with anti-HP1α-pS92 antibody; format: cell-based; design: endogenous in cells; settings: FIG. 5D
Protocol: (§1) Cells were cultured on a cover glass and immobilized with 4% paraformaldehyde in PHEM buffer solution (60 mM PIPES, 25 mM HEPES, 10 mM EGTA, 2 mM MgCl2, pH7.0) or PBS, at room temperature. Cells were treated with the above buffer solution containing 0.2 to 1.0% Triton X-100, and blocked with a 3% BSA-containing buffer. Images were obtained by AxiolmagerM1 miacroscope (manufactured by Zeiss) equipped with CoolSNAP HQ camera (manufactured by Photometrics) operated by MetaMorph software (manufactured by MDS Analytical Technologies). The intensity of fluorescence was analyzed by ImageJ software (National Institute of Health).
It was shown that the anti-HP1α-pS92 antibody sensitively detects phosphorylated HP1α even if it is used in immunostaining (FIGS. 5D, E). Cells of the interphase, cells of the metaphase, cells of the metaphase where the expression of HP1α was depleted by siRNA and cells of the metaphase where the activity of Aurora B was suppressed by ZM447439 were immunostained with an anti-HP1α-pS92 antibody (FIG. 5D). Only the metaphase cells used as the control were stained. In the interphase cells, cells where the expression of HP1α was depleted and cells where the activity of Aurora B was suppressed, phosphorylated HP1α was not detected.
Target sequence in this assay (Q96GD4 whole entry): as the sequence (Q96GD4 whole entry) above
Target sequence in this assay (Q9NQS7 whole entry partner): as the sequence (Q9NQS7 whole entry partner) above
Target sequence in this assay (O15392 whole entry partner): as the sequence (O15392 whole entry partner) above
Target sequence in this assay (Q53HL2 whole entry partner): as the sequence (Q53HL2 whole entry partner) above

Aurora B [3] = target: T1, Aurora B; assay: Phosphorylation of Aurora B substrates in HeLa cells, fluorescence microscopy with phospho-specific antibodies; format: cell-based; design: endogenous in cells; host or cells: HeLa
Protocol: as §1
Target sequence in this assay (Q96GD4 whole entry): as the sequence (Q96GD4 whole entry) above
Target sequence in this assay (Q9NQS7 whole entry partner): as the sequence (Q9NQS7 whole entry partner) above
Target sequence in this assay (O15392 whole entry partner): as the sequence (O15392 whole entry partner) above
Target sequence in this assay (Q53HL2 whole entry partner): as the sequence (Q53HL2 whole entry partner) above
Next, activation of Aurora B was analyzed based on degree of phosphorylation of a substrate. HeLa cells were transfected with siRNA of all subtypes of HP1 to inhibit expression of all HP1 subtypes. […] The cells were immobilized and then analyzed by a fluorescence microscope using an antibody recognizing phosphorylation of serine at position 10 of histone H3 (H3-pS10, 6G3, manufactured by Cell Signaling Technology) (FIG. 4B); an antibody recognizing phosphorylation of serine at position 44 of Hec1 (Hec1-pS44, Non Patent Literature 8); an Hec1 antibody (9G3.23, manufactured by Novus Biologicals) (FIG. 4C); and an antibody recognizing phosphorylation of serine at position 100 of Dsn1 (Dsn-pS100, Non Patent Literature 9) (FIG. 4D).

Aurora B [4] = target: T1, Aurora B; assay: In vitro kinase assay with recombinant INCENP, Aurora B and HP1; format: biochemical; settings: for activation of Aurora B: recombinant proteins, 1 μM HP1
Protocol: The kinase assay was carried out by adding a substrate in a kinase buffer (20 mM Tris-HCl, 50 mM MgCl2, 100 mM NaCl, 20 μM ATP, pH7.5) and 0.2 mCi/ml[γ^− ^32P]ATP. As the substrate, GST-Hec1 (1-80) or recombinant histones H3 (manufactured by New England Biolas) was used. Twenty nM INCENP and 120 nM GST-Aurora B were reacted in the presence or absence of 1 μM HP1 at 30° C. for 20 minutes and the reaction was terminated by Laemmli sample buffer. Phosphorylation was analyzed by Typhoon scanner (manufactured by GE Healthcare) and a liquid scintillation counter.
Using recombinant proteins of INCENP, Aurora B and HP1α, in vitro kinase assay was carried out (FIG. 6C). […] Accordingly, it was shown that physical binding of HP1 to INCENP is required for activation of Aurora B, and that HP1 has an allosteric effect on Aurora B.
Then, enzyme kinetics analysis of Aurora B was carried out. […] Further, analysis of proteins binding to GST-Aurora B was carried out by the GST pull down assay. As a result, the amount of Hec1 binding to GST-Aurora B increased in the conditions where HP1 can bind to INCENP. […] Accordingly, binding of HP1α to INCENP is required for activating Aurora B.
Target sequence in this assay (Q96GD4 whole entry): as the sequence (Q96GD4 whole entry) above
Target sequence in this assay (Q9NQS7 whole entry partner): as the sequence (Q9NQS7 whole entry partner) above

HP1α = target: T2, HP1α (Homo sapiens, UniProt P45973); assay: Binding assay of INCENP (positions 121 to 270) and HP1α by isothermal titration calorimetry
T2 construct: His tag or GST tag
T2 sequence (P45973 whole entry): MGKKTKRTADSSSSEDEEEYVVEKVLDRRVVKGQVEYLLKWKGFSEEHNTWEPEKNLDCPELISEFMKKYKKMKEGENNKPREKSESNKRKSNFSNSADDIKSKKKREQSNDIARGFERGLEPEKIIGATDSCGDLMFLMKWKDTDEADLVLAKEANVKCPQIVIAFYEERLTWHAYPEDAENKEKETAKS
Protocol: Wild type HP1α and a region at positions 121 to 270 in INCENP (SEQ ID NO: 8, INCENP WT) were used in the binding assay. The region at positions 121 to 270 in INCENP contains an important motif […], required for binding to HP1. A mutant (SEQ ID NO: 9, INCENP 3A) was obtained by substituting three amino acids in this region with alanine residues and used as a control. A dissociation constant thereof was determined by isothermal titration calorimetry. As an isothermal titration calorimetry apparatus, any device may be used. For example, using MicroCal iTC2000 system (manufactured by GE healthcare biosciences), measurement may be carried out, in accordance with a conventional method.
The above peptides, to which His tag or GST tag was attached, were subjected to isothermal titration calorimetry to determine a dissociation constant. Note that, the dissociation constant was computationally obtained based on average values of 5 experiments.

Molecule: COc1cc2c(Nc3ccc(NC(=O)c4ccccc4)cc3)ncnc2cc1OCCCN1CCOCC1 [ZM447439]
kinase activities of the fractions obtained by immunoprecipitation with the anti-HP1α-pS92 antibody and the INCENP antibody (Aurora B [1]): inhibited
phosphorylated HP1α detected by immunostaining (Aurora B [2]): not detected
Phosphorylation by Aurora B of substrates (H3, Hec1, Dsn1) (Aurora B [3]; FIGS. 4B to 4D legend): suppressed
effect on phosphorylation of Hec1 and Dsn1 (Aurora B [3]; HeLa cells, low concentration (0.4 μM)): suppressive effect equal to the effect produced by depletion of HP1

activation of Aurora B (Aurora B [4]): does not activate
Molecule: HP1 mutant I165E: HP1 mutant which cannot form a dimer, cannot bind to INCENP

reaction rate of substrate phosphorylation by Aurora B per unit time (Aurora B [4]; enzyme kinetics analysis, FIG. 6G): significantly increases
activation of Aurora B (Aurora B [4]): highly activate
Molecule: HP1α: recombinant heterochromatin protein 1 subtype α

activation of Aurora B (Aurora B [4]): highly activate
Molecule: HP1β: heterochromatin protein 1 subtype β

activation of Aurora B (Aurora B [4]): highly activate
Molecule: HP1γ: heterochromatin protein 1 subtype γ

binding to HP1 (HP1α): does not bind to HP1
B1: INCENP 3A: mutant (SEQ ID NO: 9) obtained by substituting three amino acids of the P×V×I motif with alanine residues (protein)
chain: LRRVTRAAAAAAAATMALAAPSSPTPESPTMLTKKPEDNHTQCQLVAVAEAGISERQNAEQHVTQLMSTEPLPRTLSPTPASATAPTSQGIPTSDEESTPKKSKARILESITVSSLMATPQDPKGQGVGTGRSASKLRIAQVSPGPRDSP
modifications: HP1 binding site mutant

Binding (HP1α; binding to wild type HP1α, isothermal titration calorimetry, His tag or GST tag peptides): ◯
B2: INCENP WT: region at positions 121 to 270 in INCENP (SEQ ID NO: 8), with His tag or GST tag (protein, listed as Homo sapiens)
chain: B1 chain with A47P, A49V, A51I
modifications: His tag or GST tag

From patent US11340215B2, “Screening method of anticancer agent focused on function of HP1 and evaluation system” (JAPANESE FOUNDATION FOR CANCER RESEARCH, priority 2016, dated 2022)
